Results from paper doi:10.1101/2023.08.25.554918 (bioRxiv, 2023).

Legend:
Experiment in all cases: SEC
[1] = target: Chimera 1 (Pfu1-Pfu2-Ton3) (Pyrococcus furiosus | Thermococcus onnurineus)
[2] = target: Chimera 2 (Pfu1-Ton2-Pfu3) (Pyrococcus furiosus | Thermococcus onnurineus)
[3] = target: Chimera 3 (Ton1-Ton2-Pfu3) (Thermococcus onnurineus | Pyrococcus furiosus)
[4] = target: Chimera 4 (Ton1-Pfu2-Ton3) (Thermococcus onnurineus | Pyrococcus furiosus)
[5] = target: Chimera 5 (Pfu1-Ton2-Ton3) (Pyrococcus furiosus | Thermococcus onnurineus)
[6] = target: Chimera 6 (Ton1-Pfu2-Pfu3) (Thermococcus onnurineus | Pyrococcus furiosus)
[7] = target: Domain 1 of PfuAmyGT (Pfu1) (Pyrococcus furiosus)
SEC = target: the molecule itself

Question: Chimera 1 (Pfu1-Pfu2-Ton3) (enzyme) was tested. Which stoichiometry N [1] did it give?
Answer: Its stoichiometry N is 2.

Question: For Chimera 2 (Pfu1-Ton2-Pfu3) (enzyme), which stoichiometry N [2] is on record?
Answer: Its stoichiometry N is 2.

Question: How did the stoichiometry N [3] turn out when Chimera 3 (Ton1-Ton2-Pfu3) (enzyme) was run?
Answer: Its stoichiometry N is 2.

Question: How did the stoichiometry N [4] turn out when Chimera 4 (Ton1-Pfu2-Ton3) (enzyme) was run?
Answer: The stoichiometry N was 2.

Question: With Chimera 5 (Pfu1-Ton2-Ton3) (enzyme) as the molecule, how does the stoichiometry N [5] read?
Answer: The stoichiometry N was 2.

Question: For Chimera 6 (Ton1-Pfu2-Pfu3) (enzyme), which stoichiometry N [6] is on record?
Answer: Its stoichiometry N is 2.

Question: With “Domain 1 of PfuAmyGT (Pfu1) (domain or fragment)” as the molecule, how does the stoichiometry N [7] read?
Answer: Its stoichiometry N is 4.

B1: PfuAmyGT (Pfu1-Pfu2-Pfu3), GH57 4-α-glucanotransferase from Pyrococcus furiosus (enzyme)
chain: MGDKINFIFGIHNHQPLGNFGWVFEEAYEKCYWPFLETLEEYPNMKVAIHTSGPLIEWLQDNRPEYIDLLRSLVKRGQVEIVVAGFYEPVLASIPKEDRIEQIRLMKEWAKSIGFDARGVWLTERVWQPELVKTLKESGIDYVIVDDYHFMSAGLSKEELYWPYYTEDGGEVIAVFPIDEKLRYLIPFRPVDKVLEYLHSLIDGDESKVAVFHDDGEKFGIWPGTYEWVYEKGWLREFFDRISSDEKINLMLYTEYLEKYKPRGLVYLPIASYFEMSEWSLPAKQARLFVEFVNELKVKGIFEKYRVFVRGGIWKNFFYKYPESNYMHKRMLMVSKLVRNNPEARKYLLRAQCNDAYWHGLFGGVYLPHLRRAIWNNLIKANSYVSLGKVIRDIDYDGFEEVLIENDNFYAVFKPSYGGSLVEFSSKNRLVNYVDVLARRWEHYHGYVESQFDGVASIHELEKKIPDEIRKEVAYDKYRRFMLQDHVVPLGTTLEDFMFSRQQEIGEFPRVPYSYELLDGGIRLKREHLGIEVEKTVKLVNDGFEVEYIVNNKTGNPVLFAVELNVAVQSIMESPGVLRGKEIVVDDKYAVGKFALKFEDEMEVWKYPVKTLSQSESGWDLIQQGVSYIVPIRLEDKIRFKLKFEEASG
Question: Which “stoichiometry N” value (SEC) does the source give for B1 here?
Answer: Its value is 2.
